Measurements published in IntAct's records for PubMed 16511572.

B1: Protein Mdm4 (Homo sapiens), O15151 (parent)
chain: MTSFSTSAQCSTSDSACRISPGQINQVRPKLPLLKILHAAGAQGEMFTVKEVMHYLGQYIMVKQLYDQQEQHMVYCGGDLLGELLGRQSFSVKDPSPLYDMLRKNLVTLATATTDAAQTLALAQDHSMDIPSQDQLKQSAEESSTSRKRTTEDDIPTLPTSEHKCIHSREDEDLIENLAQDETSRLDLGFEEWDVAGLPWWFLGNLRSNYTPRSNGSTDLQTNQDVGTAIVSDTTDDLWFLNESVSEQLGVGIKVEAADTEQTSEEVGKVSDKKVIEVGKNDDLEDSKSLSDDTDVEVTSEDEWQCTECKKFNSPSKRYCFRCWALRKDWYSDCSKLTHSLSTSDITAIPEKENEGNDVPDCRRTISAPVVRPKDAYIKKENSKLFDPCNSVEFLDLAHSSESQETISSMGEQLDNLSEQRTDTENMEDCQNLLKPCSLCEKRPRDGNIIHGRTGHLVTCFHCARRLKKAGASCPICKKEIQLVIKVFIA
partner: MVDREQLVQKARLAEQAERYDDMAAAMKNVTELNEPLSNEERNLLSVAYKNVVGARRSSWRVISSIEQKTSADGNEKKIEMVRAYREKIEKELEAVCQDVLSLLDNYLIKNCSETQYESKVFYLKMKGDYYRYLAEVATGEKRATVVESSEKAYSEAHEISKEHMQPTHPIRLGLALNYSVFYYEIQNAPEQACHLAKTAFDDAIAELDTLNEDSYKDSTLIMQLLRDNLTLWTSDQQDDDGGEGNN
B2: 14-3-3 protein gamma (Homo sapiens), P61981 (parent)
chain: B1 partner
partner: B1 chain

Variants of: B1
Settings: with 1433g_human YWHAG

Variant | effect of a mutation on the interaction
MTSFSTSAQCSTSDSACRISPGQINQVRPKLPLLKILHAAGAQGEMFTVKEVMHYLGQYIMVKQLYDQQEQHMVYCGGDLLGELLGRQSFSVKDPSPLYDMLRKNLVTLATATTDAAQTLALAQDHSMDIPSQDQLKQSAEESSTSRKRTTEDDIPTLPTSEHKCIHSREDEDLIENLAQDETSRLDLGFEEWDVAGLPWWFLGNLRSNYTPRSNGSTDLQTNQDVGTAIVSDTTDDLWFLNESVSEQLGVGIKVEAADTEQTSEEVGKVSDKKVIEVGKNDDLEDSKSLSDDTDVEVTSEDEWQCTECKKFNSPSKRYCFRCWALRKDWYSDCSKLTHSLSTSDITAIPEKENEGNDVPDCRRTIGAPVVRPKDAYIKKENSKLFDPCNSVEFLDLAHSSESQETISSMGEQLDNLSEQRTDTENMEDCQNLLKPCSLCEKRPRDGNIIHGRTGHLVTCFHCARRLKKAGASCPICKKEIQLVIKVFIA [S367G] | disrupting interaction
P369G | disrupting interaction

Variants of: B2
Settings: with mdm4_human MDM4, O15151

Variant | effect of a mutation on the interaction
MVDREQLVQKARLAEQAERYDDMAAAMKNVTELNEPLSNEERNLLSVAYENVVGARRSSWRVISSIEQKTSADGNEKKIEMVRAYREKIEKELEAVCQDVLSLLDNYLIKNCSETQYESKVFYLKMKGDYYRYLAEVATGEKRATVVESSEKAYSEAHEISKEHMQPTHPIRLGLALNYSVFYYEIQNAPEQACHLAKTAFDDAIAELDTLNEDSYKDSTLIMQLLRDNLTLWTSDQQDDDGGEGNN [K50E] | disrupting interaction
